The record followed here is paper PMC8812994.

This assay addresses rMjShoc2 (recombinant MjShoc2) (Marsupenaeus japonicus). Kind of assay: ITC; MICROCAL PEAQ-ITC; rFlaA (2 mM) in the syringe, rMjShoc2 (0.2 mM) in the cell; 2 μl injections, 25°C; one set of sites model. In general terms: In ITC the heat of successive injections is recorded.

Usually Kd stands for the constant that tells how readily two partners part at equilibrium.

On to “rFlaA (recombinant FlaA of the ITC assay) (from UniProt Q60246 1-379) (natural protein)”, for which the Kd amounted to 10 µM.
